Assay results from patent US20190382488A1 (IMAGINAB, published 2019).

Columns and labels:
[1] = target: T1, cell-surface human CD8 (human, UniProt P01732 22-235); assay: flow cytometry, HPB-ALL cells, Protein L-biotin and streptavidin-APC
T1 construct: the cell is named under assay; also called cellular human CD8; CD8 on PC3-CD8 cells
Description: (§1) Flow cytometry analysis of cys-diabody binding to cell-surface human CD8 on HPB-ALL cells was performed. Cells were stained with respective concentrations of cys-diabody, washed, stained with a secondary Protein L conjugated to Biotin, washed, then stained with a tertiary streptavidin-APC. Analysis was performed with 10,000 events/point in triplicate for each concentration. The results are shown in graph format in FIG. 30A. The graph presents the mean fluorescence intensity (MFI) vs. the log of the concentration (nM). Error bars represent the standard error. The data indicates an EC₅₀ of 0.04 nM.

[2] = target: T1, cell-surface human CD8; assay: flow cytometry on HPB-ALL cells, Protein L-biotin then streptavidin-APC
Description: as §1

[3] = target: T1, cell-surface human CD8; assay: as above; remark: listed apart in the source
Description: as §1, with “of cys-diabody (+/−C-terminal cysteine conjugation to Desferoxamine) binding to” for “of cys-diabody binding to”, “in FIG. 30C. The graph” for “in FIG. 30A. The graph”, “of 0.04 nM and 0.06 nM.” for “of 0.04 nM.”

[4] = target: T1, cell-surface human CD8; assay: flow cytometry, primary human CD8+ T cells, Protein L-biotin and streptavidin-APC
Description: as §1, with “primary human CD8+ T” for “HPB-ALL”, “30B.” for “30A.”, “0.02” for “0.04”

[5] = target: T1, cell-surface human CD8; assay: flow cytometry on primary human CD8+ T cells, Protein L-biotin then streptavidin-APC
Description: as §1, with “primary human CD8+ T” for “HPB-ALL”, “30B.” for “30A.”, “0.02” for “0.04”

T1 sequence (P01732 22-235 limits assumed): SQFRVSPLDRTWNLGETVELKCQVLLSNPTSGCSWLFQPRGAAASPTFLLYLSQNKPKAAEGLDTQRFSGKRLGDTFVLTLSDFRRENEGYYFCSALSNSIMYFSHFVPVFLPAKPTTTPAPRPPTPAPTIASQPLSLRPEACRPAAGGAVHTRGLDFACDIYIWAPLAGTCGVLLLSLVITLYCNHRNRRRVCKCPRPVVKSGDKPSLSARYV

B1: IAb_Cys-Db3b_CD8 (other)
chain: DVQITQSPSSLSASVGDRVTITCRTSRSISQYLAWYQQKPGKVPKLLIYSGSTLQSGVPSRFSGSGSGTDFTLTISSLQPEDVATYYCQQHNENPLTFGGGTKVEIKGGGSGGGGEVQLVESGGGLVQPGGSLRLSCAASGFNIKDTYIHFVRQAPGKGLEWIGRIDPANDNTLYASKFQGKATISADTSKNTAYLQMNSLRAEDTAVYYCGRGYGYYVFDHWGQGTLVTVSSGGC
notes: Cys-diabody homodimer; also called humanized OKT8 cys-diabody VL-8-VH
EC50 [1]: 0.04 nM
EC50 [2]: 0.04 nM
EC50 [3]: 0.04 nM
EC50 [4]: 0.02 nM
EC50 [5]: 0.02 nM
